Measured values published in patent publication US20150110792A1 (Biogen, published 2015).

How the values were obtained:
[1] = target: T1, human TIM-1-Fc (extracellular domain of human TIM-1, residues 1-290, attached to the Fc portion of human IgG1) (human, UniProt Q96D42 21-290); experiment: SPR (Biacore), human TIM-1-Fc
T1 construct: also called TIM-1-Ig; human TIM1-Ig; not shown: Fc portion of human IgG1
T1 sequence: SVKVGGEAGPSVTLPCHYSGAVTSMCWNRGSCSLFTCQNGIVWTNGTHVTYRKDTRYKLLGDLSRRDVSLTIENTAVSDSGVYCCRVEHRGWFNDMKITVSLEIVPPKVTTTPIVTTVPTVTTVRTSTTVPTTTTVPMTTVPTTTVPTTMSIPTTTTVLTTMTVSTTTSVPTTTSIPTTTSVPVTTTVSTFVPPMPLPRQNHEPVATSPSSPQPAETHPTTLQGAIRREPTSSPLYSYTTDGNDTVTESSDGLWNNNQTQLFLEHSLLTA

[2] = target: T1, human TIM-1-Fc (extracellular domain of …); experiment: ELISA, plates coated with human TIM-1-Fc
Description: (§1) In the second assay, an ELISA format was used to measure the relative affinity of three anti-TIM-1 monoclonal antibodies for human TIM-1. Titration curves were derived for each antibody and EC50 values were calculated from the curves. Briefly, ELISA plates (Corning Costar) were coated with 0.2 μg/ml human TIM-1-Fc overnight at 4° C. and then blocked for 1 hour at 22° C. with PBS/0.5% casein. Plates were thoroughly washed with PBS/0.1% Tween-20. Anti-human TIM-1 monoclonal antibodies were added across a range of concentrations starting at 10 μg/ml and using 1:3 dilutions, all in PBS/0.5% casein, and allowed to incubate for 1 hour at 22° C. The plates were washed again, and then a 1:1000 dilution of HRP-conjugated goat anti-mouse IgG (H+L; Jackson Immunoresearch Laboratories) was added in PBS/0.5% casein for an additional hour at 22° C. After a final wash, the plates were developed using substrate solution mix (R&D Systems) and stopped using 2N H2SO4. Plates were read at 450 nm using a microplate reader and analyzed using SoftMax Pro (Molecular Devices). Relative EC50 values were determined from the binding curves.

[3] = target: T2, cynomolgus monkey TIM-1-Fc (cynomolgus monkey TIM-1 extracellular domain expressed as an Fc fusion protein) (Cynomolgus monkey (Macaca fascicularis)); experiment: SPR (Biacore), cynomolgus monkey TIM-1-Fc
T2 construct: also called cyno.TIM1; not shown: Fc part
T2 chain: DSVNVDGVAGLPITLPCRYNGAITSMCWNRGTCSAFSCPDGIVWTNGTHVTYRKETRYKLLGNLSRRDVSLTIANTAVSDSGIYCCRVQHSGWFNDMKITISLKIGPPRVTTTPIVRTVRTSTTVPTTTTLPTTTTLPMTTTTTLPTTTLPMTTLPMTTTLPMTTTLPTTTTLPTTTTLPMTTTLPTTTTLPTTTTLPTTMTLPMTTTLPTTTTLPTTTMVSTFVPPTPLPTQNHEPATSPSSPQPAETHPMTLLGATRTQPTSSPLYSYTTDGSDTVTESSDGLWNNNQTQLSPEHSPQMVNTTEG

[4] = target: T1, human TIM-1-Fc (extracellular domain of …); experiment: ELISA-1, plates coated with 2 µg/ml human TIM-1-Fc
Description: as §1, with “Briefly, ELISA plates (Corning Costar) were coated with 0.2 μg/ml human TIM-1-Fc overnight at 4° C. and then blocked for 1 hour at 22° C. with PBS/0.5% casein.” left out
The cynomolgus monkey TIM-1 extracellular domain was expressed as an Fc fusion protein, purified, and used in the ELISA format described above for binding monoclonal antibodies to the human TIM-1 protein. […] The resulting titration curves were used to derive a relative EC50 for anti-human TIM-1 monoclonal antibody binding to human TIM-1 and cynomolgus monkey TIM-1 (Table 2, ELISA-2).

[5] = target: T1, human TIM-1-Fc (extracellular domain of …); experiment: ELISA-2, plates coated with 0.2 µg/ml human TIM-1-Fc
Description: as §1
(§2) The cynomolgus monkey TIM-1 extracellular domain was expressed as an Fc fusion protein, purified, and used in the ELISA format described above for binding monoclonal antibodies to the human TIM-1 protein. […]

[6] = target: T2, cynomolgus monkey TIM-1-Fc (cynomolgus …); experiment: ELISA-1, plates coated with 2 µg/ml cynomolgus monkey TIM-1-Fc
Description: as §1, §2

[7] = target: T2, cynomolgus monkey TIM-1-Fc (cynomolgus …); experiment: ELISA-2, plates coated with 0.2 µg/ml cynomolgus monkey TIM-1-Fc
Description: as §1, §2

[8] = target: T3, human TIM-1 expressed on cells (human, UniProt Q96D42 21-364); experiment: flow cytometry on JUN2 cells (Jurkat stably expressing human TIM-1), PE anti-mouse IgG, MFI against µg/ml of mAb
T3 construct: Full-length human TIM-1 on transfected (HEK 293T, 293E, JUN2 Jurkat) or constitutively expressing (769-P) cells; also called HAVCR1; KIM-1
T3 sequence: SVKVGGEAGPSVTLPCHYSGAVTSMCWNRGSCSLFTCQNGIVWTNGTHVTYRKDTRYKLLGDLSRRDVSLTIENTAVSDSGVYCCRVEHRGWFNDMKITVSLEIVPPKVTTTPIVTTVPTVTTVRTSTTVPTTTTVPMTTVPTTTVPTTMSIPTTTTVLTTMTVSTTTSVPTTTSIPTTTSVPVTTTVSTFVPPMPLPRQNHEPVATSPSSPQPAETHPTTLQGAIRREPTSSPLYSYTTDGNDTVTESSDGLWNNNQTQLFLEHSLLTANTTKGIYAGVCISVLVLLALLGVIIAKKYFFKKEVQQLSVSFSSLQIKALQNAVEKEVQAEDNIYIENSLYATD
Description: (§3) Three assays were used to assess the affinity of ARD5 for human TIM-1. In the first assay, ARD5 binding to cells expressing TIM-1 was measured by Flow Cytometry. Two cell lines were used. JUN2 cells are a stable human Jurkat TIM-1-expressing cell line (described in Binne et al. (2007) J. Immunol. 178: 4342-50). The human kidney cell line 769-P also constitutively expresses TIM-1. JUN2 cells and 769-P cells were cultured in RPMI/10% FBS. JUN2 cells grow in suspension; 769-P cells are adherent and were gently removed with Accutase (Invitrogen). Cells were resuspended in PBS/5% BSA and incubated with monoclonal antibodies for 1 hour on ice. Following several washes with PBS/5% BSA, the cells were resuspended in the same buffer containing PE-coupled donkey anti-mouse IgG secondary antibody (Jackson Immunoresearch). Following an additional wash in PBS/5% BSA and a final wash in PBS, cell were resuspended in 100 ul PBS and fixed in an equal volume of 2% paraformaldehyde. Monoclonal antibody binding was analyzed using a flow cytometer (FACScan).

[9] = target: T3, human TIM-1 expressed on cells; experiment: flow cytometry on 769-P cells (constitutively expressing human TIM-1), PE anti-mouse IgG, MFI against µg/ml of mAb
Description: as §3

[10] = target: T4, Cynomolgus monkey TIM-1 expressed on transfected 293E cells (Cynomolgus monkey (Macaca fascicularis), UniProt O46598 25-478 (Chlorocebus aethiops entry)); experiment: flow cytometry on 293E cells transfected with Cynomolgus monkey TIM-1 cDNA, gated on EGFP-positive cells, PE anti-mouse IgG
T4 construct: Full-length cDNA (pEAG2184) transfected into 293E cells; also called Cynomolgus TIM-1
T4 chain: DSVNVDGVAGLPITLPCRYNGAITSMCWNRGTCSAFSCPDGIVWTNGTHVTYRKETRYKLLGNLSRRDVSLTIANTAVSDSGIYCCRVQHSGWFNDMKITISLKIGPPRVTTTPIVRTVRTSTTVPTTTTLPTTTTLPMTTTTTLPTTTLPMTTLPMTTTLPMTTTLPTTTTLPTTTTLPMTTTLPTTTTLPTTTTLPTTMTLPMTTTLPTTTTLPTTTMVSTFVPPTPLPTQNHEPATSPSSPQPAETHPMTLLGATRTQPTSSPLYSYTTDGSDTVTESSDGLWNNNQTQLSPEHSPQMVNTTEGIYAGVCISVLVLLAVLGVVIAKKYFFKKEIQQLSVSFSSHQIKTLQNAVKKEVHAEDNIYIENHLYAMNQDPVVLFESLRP
Description: In a second series of experiments, 293E cells transfected with human TIM-1 cDNA or Cynomolgus monkey TIM-1 cDNA were analyzed for anti-human TIM-1 monoclonal antibody binding by flow cytometry. The full-length human and cynomolgus monkey TIM1 cDNAs were engineered to remove extraneous 5′ and 3′ UTRs and to add an identical optimized Kozak sequence, then were subcloned into pNE001, a fully sequence-confirmed pUC-based EBV expression vector derived from the Invitrogen expression vector pCEP4, in which heterologous gene expression is controlled by a CMV-IE promoter and an SV40 polyadenylation signal, but lacking the EBNA gene and the hygromycin resistance gene. TIM-1 expression vectors (human: pEAG2182, and cynomolgus monkey: pEAG2184) were co-transfected into 293E cells at a 1:1 molar ratio with an EBV expression vector carrying an EGFP reporter (pEAG1458). Cells were transfected using Qiagen's Effectene reagent, following the manufacturer's recommended protocol. Cells were used in FACS at 2 days post-transfection, staining with a dilution titration series of murine anti-human TIM1 monoclonal antibodies, (detected with PE-conjugated goat anti-mouse IgG secondary antibody) and gating on green EGFP-positive living cells. […]

[11] = target: T1, human TIM-1-Fc (extracellular domain of …); experiment: SPR (Biacore), monovalent binding to immobilized human TIM-1

B1: monoclonal antibody ARD5 (antibody, mouse IgG1, kappa, V domains shown)
VH: QVQLQQSGAELVRPGTSVKVSCKASGYVFTNYWIEWIKQRPGQGLEWIGVMNPGSGETTYNEKFKGKATLTADKSSSTAYMQLSSLTSVDSAVYFCARDHDRDYYAMDYWGQGTSVTVSS
VL: EIQMTQSPSSMSASLGDTITITCQATQDIFKNLNWYQQKPGKPPSLLIYYATELAEGVPSRFSGSGSGSDYSLTISNLESEDFAAYYCLQFFEFPFTFGSGTKLEMKR
notes: Murine IgG1/kappa hybridoma antibody (ATCC PTA-12195); also called ARD5.12; muARD5
**Q.** What does the source list for B1?
**A.** Kd [1]: ≤ 0.6 nM; EC50 [2]: 0.00078 µg/mL; relative EC50 against A6G2 and A3H1 (percent greater) [2]: 80.5%; Kd [3]: < 50 nM; EC50 [4]: 0.001 µg/mL; EC50 [5]: 0.043 µg/mL; EC50 [6]: 0.002 µg/mL; EC50 [7]: 0.013 µg/mL; EC50 (read off the curve) [8]: ~0.1 µg/mL; EC50 (read off the curve) [9]: ~0.2 µg/mL; binding result [10]: binds

B2: FAb fragment of ARD5 (Fab, V domains shown)
VH: QVQLQQSGAELVRPGTSVKVSCKASGYVFTNYWIEWIKQRPGQGLEWIGVMNPGSGETTYNEKFKGKATLTADKSSSTAYMQLSSLTSVDSAVYFCARDHDRDYYAMDYWGQGTSVTVSS
VL: EIQMTQSPSSMSASLGDTITITCQATQDIFKNLNWYQQKPGKPPSLLIYYATELAEGVPSRFSGSGSGSDYSLTISNLESEDFAAYYCLQFFEFPFTFGSGTKLEMKR
notes: Fab purified from the ARD5 monoclonal antibody; also called FAb of ARD5; not shown: murine IgG1 CH1 and part of the hinge
**Q.** For B2, which Kd [11] is on record?
**A.** 3 nM
